Results reported in patent US20080026996A1, “Selective Vpac2 Receptor Reptide Agonists” (ELI LILLY AND COMPANY, priority 2004, published 2008).
Where no end group is shown, it is not given here. [ ]: non-standard residue; d: D form. The star is where a group is joined. Hexanoyl = CCCCCC(=O)*; Aib = CC(C)(N)C(=O)O

Key:
[1] = molecular target: T1, human VPAC2 receptor (human, UniProt P41587 24-438); assay: cell-based or functional assay
T1 sequence (looked up): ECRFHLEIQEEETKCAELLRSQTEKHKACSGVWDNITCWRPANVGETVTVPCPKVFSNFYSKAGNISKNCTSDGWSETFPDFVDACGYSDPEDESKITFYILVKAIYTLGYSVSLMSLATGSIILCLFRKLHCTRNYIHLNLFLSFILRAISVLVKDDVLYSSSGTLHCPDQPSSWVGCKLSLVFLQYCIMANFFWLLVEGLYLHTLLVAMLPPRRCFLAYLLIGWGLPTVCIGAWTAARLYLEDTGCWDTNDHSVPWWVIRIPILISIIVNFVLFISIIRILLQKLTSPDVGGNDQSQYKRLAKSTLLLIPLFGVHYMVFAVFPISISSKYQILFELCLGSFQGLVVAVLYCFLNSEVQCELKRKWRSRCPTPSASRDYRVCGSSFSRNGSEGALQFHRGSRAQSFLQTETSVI

[2] = molecular target: T2, rat VPAC1 receptor (rat, UniProt P30083 31-459); assay: cell-based or functional assay
T2 sequence (looked up): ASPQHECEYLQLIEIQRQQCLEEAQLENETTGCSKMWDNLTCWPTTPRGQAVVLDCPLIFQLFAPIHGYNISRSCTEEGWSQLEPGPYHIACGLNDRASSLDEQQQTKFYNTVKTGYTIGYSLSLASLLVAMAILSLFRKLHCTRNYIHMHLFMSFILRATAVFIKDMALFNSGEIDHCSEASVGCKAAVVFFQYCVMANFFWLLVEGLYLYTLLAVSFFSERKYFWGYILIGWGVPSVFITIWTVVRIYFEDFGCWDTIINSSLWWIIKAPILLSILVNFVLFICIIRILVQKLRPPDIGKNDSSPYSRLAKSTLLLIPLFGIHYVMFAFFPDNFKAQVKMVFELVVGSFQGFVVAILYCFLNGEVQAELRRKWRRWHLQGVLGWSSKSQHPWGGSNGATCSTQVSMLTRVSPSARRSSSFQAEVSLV

[3] = molecular target: T3, rat VPAC2 receptor (rat, UniProt P35000 23-437); assay: cell-based or functional assay
T3 sequence (looked up): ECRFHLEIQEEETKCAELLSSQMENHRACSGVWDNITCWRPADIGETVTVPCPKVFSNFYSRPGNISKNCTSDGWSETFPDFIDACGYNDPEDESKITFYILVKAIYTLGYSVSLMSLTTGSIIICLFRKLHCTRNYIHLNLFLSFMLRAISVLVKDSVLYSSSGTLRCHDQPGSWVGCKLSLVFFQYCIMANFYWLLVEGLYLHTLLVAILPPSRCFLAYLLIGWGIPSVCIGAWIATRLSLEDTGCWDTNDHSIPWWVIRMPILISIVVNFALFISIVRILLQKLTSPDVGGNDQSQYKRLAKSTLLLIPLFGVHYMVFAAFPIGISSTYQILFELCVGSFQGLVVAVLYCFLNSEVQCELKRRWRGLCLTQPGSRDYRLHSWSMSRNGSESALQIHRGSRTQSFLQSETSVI

[4] = molecular target: T2, rat VPAC1 receptor; assay: cell-based or functional assay; remark: listed apart in the source
[5] = molecular target: T3, rat VPAC2 receptor; assay: cell-based or functional assay; remark: listed apart in the source
[6] = molecular target: T3, rat VPAC2 receptor; assay: IC50 on rat VPAC1 over IC50 on rat VPAC2
From the text: Each assay is done in duplicate and performed on two different membrane preparations.
TABLE 3 Binding data are expressed as the IC₅₀ values of tracer inhibition. A different reference compound is used as the tracer for the VPAC1 receptor and for the VPAC2 receptor. The last column represents the ratio between the IC₅₀ values on VPAC1 and VPAC2 receptor and is, thus, an index of selectivity for a receptor subtype. […] The values are given with the standard error.

[7] = molecular target: T4, human VPAC2 receptor (human), P41587; assay: cell-based or functional assay
T4 chain: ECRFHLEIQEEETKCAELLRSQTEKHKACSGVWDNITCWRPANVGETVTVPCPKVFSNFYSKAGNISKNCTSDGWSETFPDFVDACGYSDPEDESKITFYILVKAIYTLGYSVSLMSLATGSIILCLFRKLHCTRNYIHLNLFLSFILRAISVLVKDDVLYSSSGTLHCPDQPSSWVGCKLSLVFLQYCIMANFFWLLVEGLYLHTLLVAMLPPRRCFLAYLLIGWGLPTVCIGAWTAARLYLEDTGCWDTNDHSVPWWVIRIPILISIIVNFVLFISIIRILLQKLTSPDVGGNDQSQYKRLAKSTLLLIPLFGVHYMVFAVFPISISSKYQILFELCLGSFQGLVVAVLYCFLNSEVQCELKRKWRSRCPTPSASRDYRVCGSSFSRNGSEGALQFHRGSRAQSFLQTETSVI

[8] = molecular target: T5, rat PAC1 receptor (rat, UniProt P32215 20-523); assay: cell-based or functional assay
T5 sequence (looked up): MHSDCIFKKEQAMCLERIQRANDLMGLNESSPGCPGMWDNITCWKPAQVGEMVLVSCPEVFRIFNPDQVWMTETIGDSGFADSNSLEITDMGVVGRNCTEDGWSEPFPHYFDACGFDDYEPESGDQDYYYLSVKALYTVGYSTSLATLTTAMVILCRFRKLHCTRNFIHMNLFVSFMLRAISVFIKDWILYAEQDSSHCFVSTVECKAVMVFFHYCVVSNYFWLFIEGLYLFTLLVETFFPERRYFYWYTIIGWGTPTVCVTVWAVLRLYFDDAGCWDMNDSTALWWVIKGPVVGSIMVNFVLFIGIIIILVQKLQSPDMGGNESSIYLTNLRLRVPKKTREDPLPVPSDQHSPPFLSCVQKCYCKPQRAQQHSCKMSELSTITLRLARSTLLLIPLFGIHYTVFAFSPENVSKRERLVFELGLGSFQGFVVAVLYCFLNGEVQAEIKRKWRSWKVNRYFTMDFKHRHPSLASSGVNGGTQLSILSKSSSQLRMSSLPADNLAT

[9] = molecular target: T6, human VPAC1 receptor (human, UniProt P32241 31-457); assay: cell-based or functional assay
T6 sequence (looked up): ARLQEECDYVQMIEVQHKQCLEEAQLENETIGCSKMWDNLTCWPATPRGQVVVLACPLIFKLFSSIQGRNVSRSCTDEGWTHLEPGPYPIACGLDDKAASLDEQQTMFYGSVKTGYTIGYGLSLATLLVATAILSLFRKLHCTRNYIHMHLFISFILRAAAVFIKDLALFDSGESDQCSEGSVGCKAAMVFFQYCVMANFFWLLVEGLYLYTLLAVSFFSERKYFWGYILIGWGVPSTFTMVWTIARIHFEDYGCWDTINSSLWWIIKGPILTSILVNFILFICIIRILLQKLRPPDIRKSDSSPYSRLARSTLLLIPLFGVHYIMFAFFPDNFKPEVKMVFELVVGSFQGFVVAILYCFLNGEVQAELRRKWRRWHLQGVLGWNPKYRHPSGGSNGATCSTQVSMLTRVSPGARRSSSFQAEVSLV

[10] = molecular target: T7, human PAC1 receptor (human, UniProt P41586 21-468); assay: cell-based or functional assay
T7 sequence (looked up): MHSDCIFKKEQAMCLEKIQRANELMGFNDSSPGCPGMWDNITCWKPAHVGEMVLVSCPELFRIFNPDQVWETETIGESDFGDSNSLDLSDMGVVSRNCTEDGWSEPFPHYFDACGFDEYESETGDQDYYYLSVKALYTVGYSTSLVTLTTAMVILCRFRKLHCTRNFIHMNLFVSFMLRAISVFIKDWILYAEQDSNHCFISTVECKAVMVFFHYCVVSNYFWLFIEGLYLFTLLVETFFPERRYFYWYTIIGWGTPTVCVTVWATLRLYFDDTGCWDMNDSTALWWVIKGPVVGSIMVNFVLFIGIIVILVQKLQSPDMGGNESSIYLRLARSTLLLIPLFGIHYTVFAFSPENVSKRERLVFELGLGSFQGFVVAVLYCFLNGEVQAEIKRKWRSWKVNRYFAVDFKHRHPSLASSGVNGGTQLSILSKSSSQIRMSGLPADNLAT

B1: P292 (peptide)
peptide: Hexanoyl-HSDAVFTDNYTRLR[Aib]QLAA[Aib]KYLQSIKNKGGPSSGAPPPS
modifications: ends and bridges not checked
In the case of B1, the “EC50 cAMP, Alpha Screen” value [1] is reported as 0.23 nM, the cAMP max [2] is reported as 124 and the “VPAC1/VPAC2 (EC50 ratio)” value [3] is reported as 100. For the same binder, the cAMP max [3] was 79.1, the “EC50 cAMP, DiscoveRx” value [4] was 1.91 nM and the “EC50 cAMP, DiscoveRx” value [5] was 0.07 nM. For the same binder, the “VPAC1/VPAC2 (ratio of IC50 values)” value [6] was 269.

B2: P213 (peptide)
peptide: HSDAVFTDNYTRLRKQVAAKRYLQSIRNGGPSSGAPPPS
modifications: not checked
In the case of B2, the EC50 cAMP, Alpha Screen [7] is reported as 0.24 nM.

B3: P214 (peptide)
peptide: HSDAVFTDNYTRLRKQVAARRYLQSIRNGGPSSGAPPPS
modifications: not checked
B3 was tested, and the EC50 cAMP, Alpha Screen [7] was 0.16 nM.

B4: P104 (peptide)
peptide: MHSDAVFTDNYTRLRKQVAAKKYLQSIKNKRYGGPSSGAPPPS
modifications: N-terminal methionine added (M-)
notes: also called VPAC2-P104
In the case of B4, the “adenylate cyclase potency ratio compared to PACAP-27” value (“adenylate cyclase potency ratio” below) [8] is reported as over 1000 fold, the “EC50 cAMP, Alpha Screen” value [1] is reported as 0.27 nM and the cAMP max [2] is reported as 195. For the same binder, the “VPAC1/VPAC2 (EC50 ratio)” value [3] was 184, the cAMP max [3] was 129 and the “EC50 cAMP, DiscoveRx” value [4] was 6.75 nM. The “EC50 cAMP, DiscoveRx” value [5] was 0.51 nM and the “VPAC1/VPAC2 (ratio of IC50 values)” value [6] was 977.

B5: P119 (peptide)
peptide: Hexanoyl-HSDAVFTDNYTRLLAKLALQKYLQSIKNKRYGGPSSGAPPPS
notes: also called VPAC2-P119
B5 was tested, and the “adenylate cyclase potency ratio” value [8] was over 200 fold, the “EC50 cAMP, Alpha Screen” value [1] was 0.42 nM and the “EC50 cAMP, DiscoveRx” value [1] was 0.34 nM. For the same binder, the cAMP max [2] was 207, the “VPAC1/VPAC2 (EC50 ratio)” value [3] was 32 and the cAMP max [3] was 133. For the same binder, the “EC50 cAMP, DiscoveRx” value [4] was 0.07 nM and the “VPAC1/VPAC2 (ratio of IC50 values)” value [6] was 47.

B6: P31 (peptide)
peptide: Hexanoyl-HSDAVFTDNYTRLRKQVAAKKYLQSIKNKRYGGPSSGAPPPS
notes: also called VPAC2-P31
For B6, the “adenylate cyclase potency ratio” value [8] was over 200 fold, the “EC50 cAMP, Alpha Screen” value [1] was 0.13 nM and the “EC50 cAMP, DiscoveRx” value [1] was 0.11 nM. The “EC50 cAMP, DiscoveRx” value [9] was 6 nM, the “EC50 cAMP, DiscoveRx” value [10] was 116 nM and the cAMP max [2] was 200. For the same binder, the “VPAC1/VPAC2 (EC50 ratio)” value [3] was 174, the cAMP max [3] was 134 and the “EC50 cAMP, DiscoveRx” value [4] was 0.44 nM. The “VPAC1/VPAC2 (ratio of IC50 values)” value [6] was 546.
